Read-outs that look alike come from different tables or passages of the source.

The target of test [1] is Plasminogen (Homo sapiens) (UniProt P00747). The note with it: cited from earlier work.
Test [2] addresses Elongation factor Tuf of Legionella pneumophila, recombinant, hexahistidine-tagged (Legionella pneumophila). Kind of test: ELISA. A general note: ELISA stands for enzyme-linked immunosorbent assay.
Test [3] deals with Translation elongation factor Tuf of Acinetobacter baumannii type strain ATCC 19606, recombinant, N-terminally hexahistidine-tagged (Acinetobacter baumannii ATCC 19606) (UniProt B7H1K5). Kind of test: ELISA; immobilised Tuf (5 ug/ml) incubated with increasing amounts of plasminogen; apparent dissociation constants by non-linear regression.
The target is the same in test [4]. Kind of test: ELISA; immobilised TufAb, plasminogen (10 ug/ml) with increasing concentrations of NaBr (up to 1 M).
For test [5] the target is unchanged. Kind of test: ELISA; immobilised TufAb, plasminogen (10 ug/ml) with increasing concentrations of the lysine analog tranexamic acid (up to 50 mM).
Test [6] concerns the target Plasminogen (Homo sapiens) (UniProt P00747). The note with it: cited from earlier work. This is another data set of the same source.

As to DnaK (from UniProt B8DT62), the Kd in test [1] is 11 nM.

Consider Human glu-plasminogen (natural protein), for which the values for the Kd in test [2] and in test [3] were 69 nM and 57 nM, respectively. Besides, the percent of binding left with 1 M NaBr, against reactions without NaBr in test [4] stood at 55%. For the same substance, the percent decrease of binding with 50 mM tranexamic acid, against reactions without it in test [5] is 50%.

Take Enolase (from UniProt B8DTI9): the Kd in test [6] is 42 nM.
